Publication PMC4215116

Assay: Ni-NTA pull-down of conditioned medium, anti-myc blot
Conditions: glycan lost; control: wild-type ECM1-MH

B1: extracellular matrix protein 1 (ECM1): N444Q (protein)
parent chain: MGTTARAALVLTYLAVASAASEGGFTATGQRQLRPEHFQEVGYAAPPSPPLSRSLPMDHPDSSQHGPPFEGQSQVQPPPSQEATPLQQEKLLPAQLPAEKEVGPPLPQEAVPLQKELPSLQHPNEQKEGTPAPFGDQSHPEPESWNAAQHCQQDRSQGGWGHRLDGFPPGRPSPDNLNQICLPNRQHVVYGPWNLPQSSYSHLTRQGETLNFLEIGYSRCCHCRSHTNRLECAKLVWEEAMSRFCEAEFSVKTRPHWCCTRQGEARFSCFQEEAPQPHYQLRACPSHQPDISSGLELPFPPGVPTLDNIKNICHLRRFRSVPRNLPATDPLQRELLALIQLEREFQRCCRQGNNHTCTWKAWEDTLDKYCDREYAVKTHHHLCCRHPPSPTRDECFARRAPYPNYDRDILTIDIGRVTPNLMGHLCGNQRVLTKHKHIPGLIHNMTARCCDLPFPEQACCAEEEKLTFINDLCGPRRNIWRDPALCCYLSPGDEQVNCFNINYLRNVALVSGDTENAKGQGEQGSTGGTNISSTSEPKEE
- expression_or_secretion: no change
